Experimental findings from article PMC7948506 are described below.

A word on the pKd: it is the negative decadic logarithm of the Kd, by convention in mol/L. Read a high pKd as a low Kd. As a reminder, the stoichiometry N is the number of molecules, sites or subunits per partner or assembly.

pKd: −log10 of the molar value.

Assay [1] addresses Glycine max (soybean) heme oxygenase-1 (GmHO-1) (Glycine max (soybean)). The assay is described as follows: ITC; 800 uM Fd in the syringe into 40 uM holo-GmHO-1 (heme bound) in the cell; 25 °C; 20 mM Tris-HCl pH 7.0, 20 mM NaCl; one set of sites model; single measurement. (In ITC the heat of successive injections is recorded.)
Assay [2] shares this target. Kind of assay: ITC; 800 uM Fd in the syringe into 40 uM apo-GmHO-1 (no heme) in the cell; 25 °C; 20 mM Tris-HCl pH 7.0, 20 mM NaCl; one set of sites model; single measurement.

In assay [1], “soybean ferredoxin (Fd) (natural protein)” gave a pKd of 5.28, a dH of 2.6 kcal/mol and a stoichiometry N of 1. In assay [2], this substance had a pKd of 4.83, a dH of 3.3 kcal/mol and a stoichiometry N of 1.
